Measurements: patent publication US20230183713A1, “SITE-SPECIFIC RECOMBINASES FOR EFFICIENT AND SPECIFIC GENOME EDITING” (TECHNISCHE UNIVERSITÄt DRESDEN, published 2023)

T1: Cre recombinase monomer with R292A mutation
T1 chain: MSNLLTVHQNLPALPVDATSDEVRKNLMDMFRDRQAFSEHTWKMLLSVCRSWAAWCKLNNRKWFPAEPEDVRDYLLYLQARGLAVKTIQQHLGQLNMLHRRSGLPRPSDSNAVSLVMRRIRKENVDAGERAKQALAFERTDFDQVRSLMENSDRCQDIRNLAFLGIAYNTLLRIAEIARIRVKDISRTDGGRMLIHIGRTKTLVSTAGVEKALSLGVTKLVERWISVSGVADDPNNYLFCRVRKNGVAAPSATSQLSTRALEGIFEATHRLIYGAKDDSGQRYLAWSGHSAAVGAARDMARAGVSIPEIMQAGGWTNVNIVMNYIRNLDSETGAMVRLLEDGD

T2: Cre recombinase monomer with Q311R mutation
T2 chain: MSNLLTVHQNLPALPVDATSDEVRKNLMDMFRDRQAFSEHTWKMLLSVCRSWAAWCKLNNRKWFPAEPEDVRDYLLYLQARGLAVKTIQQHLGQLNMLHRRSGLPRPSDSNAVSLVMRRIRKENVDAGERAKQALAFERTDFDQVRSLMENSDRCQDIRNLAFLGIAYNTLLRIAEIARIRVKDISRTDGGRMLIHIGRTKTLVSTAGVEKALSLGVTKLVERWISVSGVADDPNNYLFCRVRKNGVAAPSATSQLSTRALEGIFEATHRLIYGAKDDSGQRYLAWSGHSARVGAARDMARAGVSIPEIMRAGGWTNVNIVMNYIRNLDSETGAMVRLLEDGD

T3: Cre recombinase monomer with K201A mutation
T3 chain: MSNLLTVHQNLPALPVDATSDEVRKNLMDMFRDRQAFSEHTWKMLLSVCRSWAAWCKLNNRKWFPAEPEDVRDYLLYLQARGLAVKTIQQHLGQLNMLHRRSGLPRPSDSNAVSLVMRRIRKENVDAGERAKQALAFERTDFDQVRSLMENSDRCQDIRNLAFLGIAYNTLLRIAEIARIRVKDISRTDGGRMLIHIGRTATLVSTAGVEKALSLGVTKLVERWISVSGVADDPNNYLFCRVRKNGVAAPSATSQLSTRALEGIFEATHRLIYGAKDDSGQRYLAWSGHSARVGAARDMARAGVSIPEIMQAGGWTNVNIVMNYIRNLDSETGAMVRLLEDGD

T4: Cre recombinase monomer with R292S mutation
T4 chain: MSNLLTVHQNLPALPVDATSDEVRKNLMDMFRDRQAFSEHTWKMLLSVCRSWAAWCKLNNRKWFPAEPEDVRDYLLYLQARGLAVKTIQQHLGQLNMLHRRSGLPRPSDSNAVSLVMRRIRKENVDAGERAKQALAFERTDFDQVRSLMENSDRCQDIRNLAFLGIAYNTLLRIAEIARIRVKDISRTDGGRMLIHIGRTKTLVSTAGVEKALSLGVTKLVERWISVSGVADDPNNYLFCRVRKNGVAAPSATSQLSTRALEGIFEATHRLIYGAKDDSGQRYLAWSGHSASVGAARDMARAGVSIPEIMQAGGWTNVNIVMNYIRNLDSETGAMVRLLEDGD

T5: Cre recombinase monomer with R292E mutation
T5 chain: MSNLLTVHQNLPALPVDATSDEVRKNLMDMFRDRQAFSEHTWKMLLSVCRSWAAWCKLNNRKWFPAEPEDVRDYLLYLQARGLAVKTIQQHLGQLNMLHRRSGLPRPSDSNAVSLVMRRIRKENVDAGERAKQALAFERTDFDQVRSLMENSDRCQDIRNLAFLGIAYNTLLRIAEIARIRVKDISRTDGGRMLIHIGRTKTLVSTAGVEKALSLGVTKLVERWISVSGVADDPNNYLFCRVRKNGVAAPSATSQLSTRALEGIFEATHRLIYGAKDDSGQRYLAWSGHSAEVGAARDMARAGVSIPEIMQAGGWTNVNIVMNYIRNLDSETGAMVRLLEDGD

T6: Cre recombinase monomer with R292T mutation
T6 chain: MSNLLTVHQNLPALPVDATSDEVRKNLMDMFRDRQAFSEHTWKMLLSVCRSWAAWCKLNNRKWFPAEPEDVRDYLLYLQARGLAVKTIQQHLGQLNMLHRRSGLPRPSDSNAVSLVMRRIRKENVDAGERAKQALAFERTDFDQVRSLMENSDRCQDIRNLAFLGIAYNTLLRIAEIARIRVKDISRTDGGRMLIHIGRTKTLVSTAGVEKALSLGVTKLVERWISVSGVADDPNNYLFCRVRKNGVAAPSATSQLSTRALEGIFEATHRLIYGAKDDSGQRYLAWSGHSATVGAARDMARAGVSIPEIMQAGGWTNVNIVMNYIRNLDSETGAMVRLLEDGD

T7: Cre recombinase monomer with R292I mutation
T7 chain: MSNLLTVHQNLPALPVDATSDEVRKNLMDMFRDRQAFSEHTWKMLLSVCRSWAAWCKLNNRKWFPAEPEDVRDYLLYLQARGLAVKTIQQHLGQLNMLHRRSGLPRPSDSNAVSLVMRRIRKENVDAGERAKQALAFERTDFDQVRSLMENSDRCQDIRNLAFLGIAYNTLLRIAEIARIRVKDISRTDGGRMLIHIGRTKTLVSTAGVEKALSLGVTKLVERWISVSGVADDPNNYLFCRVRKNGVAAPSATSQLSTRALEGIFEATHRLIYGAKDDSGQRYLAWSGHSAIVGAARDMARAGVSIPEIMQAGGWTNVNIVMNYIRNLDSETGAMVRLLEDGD

T8: Cre recombinase monomer with R292N mutation
T8 chain: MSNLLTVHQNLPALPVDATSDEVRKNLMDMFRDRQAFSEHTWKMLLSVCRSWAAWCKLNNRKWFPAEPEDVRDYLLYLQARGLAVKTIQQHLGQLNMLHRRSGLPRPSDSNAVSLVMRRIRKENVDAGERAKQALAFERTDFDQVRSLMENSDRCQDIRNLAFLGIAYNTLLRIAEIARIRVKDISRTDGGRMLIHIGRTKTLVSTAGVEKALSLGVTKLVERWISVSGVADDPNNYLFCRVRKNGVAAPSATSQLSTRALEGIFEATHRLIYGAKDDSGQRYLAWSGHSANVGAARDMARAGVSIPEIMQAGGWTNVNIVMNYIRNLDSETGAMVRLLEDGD

T9: Cre recombinase monomer with Y324F mutation
T9 chain: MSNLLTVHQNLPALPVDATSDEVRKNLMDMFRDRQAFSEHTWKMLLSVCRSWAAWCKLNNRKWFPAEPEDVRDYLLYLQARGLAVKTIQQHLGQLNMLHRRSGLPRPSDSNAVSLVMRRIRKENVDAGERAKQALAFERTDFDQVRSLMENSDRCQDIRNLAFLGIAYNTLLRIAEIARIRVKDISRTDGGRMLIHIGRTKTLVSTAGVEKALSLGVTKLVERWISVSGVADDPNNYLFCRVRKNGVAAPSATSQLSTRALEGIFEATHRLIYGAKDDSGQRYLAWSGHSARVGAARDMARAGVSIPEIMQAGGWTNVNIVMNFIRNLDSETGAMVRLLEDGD

T10: Cre recombinase monomer with Y324W mutation
T10 chain: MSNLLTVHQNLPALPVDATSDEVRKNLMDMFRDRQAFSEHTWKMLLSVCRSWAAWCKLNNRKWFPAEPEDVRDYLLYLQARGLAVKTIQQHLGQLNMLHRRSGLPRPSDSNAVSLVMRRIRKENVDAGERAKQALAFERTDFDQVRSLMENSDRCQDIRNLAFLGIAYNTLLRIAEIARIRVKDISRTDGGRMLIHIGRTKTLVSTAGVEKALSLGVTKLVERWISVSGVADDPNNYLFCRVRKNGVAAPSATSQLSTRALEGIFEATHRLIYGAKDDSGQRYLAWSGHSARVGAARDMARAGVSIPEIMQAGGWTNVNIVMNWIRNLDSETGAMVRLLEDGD

T11: Cre recombinase monomer with R292M mutation
T11 chain: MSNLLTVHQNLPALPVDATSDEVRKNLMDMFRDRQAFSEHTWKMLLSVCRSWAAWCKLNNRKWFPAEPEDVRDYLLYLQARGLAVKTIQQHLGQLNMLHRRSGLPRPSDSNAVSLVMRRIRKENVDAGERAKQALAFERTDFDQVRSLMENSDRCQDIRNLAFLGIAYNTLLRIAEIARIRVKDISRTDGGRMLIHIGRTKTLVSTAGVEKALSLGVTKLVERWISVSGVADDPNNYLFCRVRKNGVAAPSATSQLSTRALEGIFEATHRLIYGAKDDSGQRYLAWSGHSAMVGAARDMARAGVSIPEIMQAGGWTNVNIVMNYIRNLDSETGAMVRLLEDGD


How the values were obtained:
[1] = target: T1, Cre recombinase monomer with R292A …
[2] = target: T2, Cre recombinase monomer with Q311R …
[3] = target: T3, Cre recombinase monomer with K201A …
[4] = target: T4, Cre recombinase monomer with R292S …
[5] = target: T5, Cre recombinase monomer with R292E …
[6] = target: T6, Cre recombinase monomer with R292T …
[7] = target: T7, Cre recombinase monomer with R292I …
[8] = target: T8, Cre recombinase monomer with R292N …
[9] = target: T9, Cre recombinase monomer with Y324F …
[10] = target: T10, Cre recombinase monomer with Y324W …
[11] = target: T11, Cre recombinase monomer with R292M …

Row | Protein | Median dimer activity (recombination on loxP) [1] [%] | Median dimer activity (recombination on loxP) [2] [%] | Median dimer activity (recombination on loxP) [3] [%] | Median dimer activity (recombination on loxP) [4] [%] | Median dimer activity (recombination on loxP) [5] [%] | Median dimer activity (recombination on loxP) [6] [%] | Median dimer activity (recombination on loxP) [7] [%] | Median dimer activity (recombination on loxP) [8] [%] | Median dimer activity (recombination on loxP) [9] [%] | Median dimer activity (recombination on loxP) [10] [%] | Median dimer activity (recombination on loxP) [11] [%]
1 | Cre recombinase monomer with E176H mutation (protein) MSNLLTVHQNLPALPVDATSDEVRKNLMDMFRDRQAFSEHTWKMLLSVCRSWAAWCKLNNRKWFPAEPEDVRDYLLYLQARGLAVKTIQQHLGQLNMLHRRSGLPRPSDSNAVSLVMRRIRKENVDAGERAKQALAFERTDFDQVRSLMENSDRCQDIRNLAFLGIAYNTLLRIAHIARIRVKDISRTDGGRMLIHIGRTKTLVSTAGVEKALSLGVTKLVERWISVSGVADDPNNYLFCRVRKNGVAAPSATSQLSTRALEGIFEATHRLIYGAKDDSGQRYLAWSGHSARVGAARDMARAGVSIPEIMQAGGWTNVNIVMNYIRNLDSETGAMVRLLEDGD | 55 | 51 | 33 | 68 | 38 |  |  |  |  |  | 
2 | Cre recombinase monomer with E176V mutation (protein) MSNLLTVHQNLPALPVDATSDEVRKNLMDMFRDRQAFSEHTWKMLLSVCRSWAAWCKLNNRKWFPAEPEDVRDYLLYLQARGLAVKTIQQHLGQLNMLHRRSGLPRPSDSNAVSLVMRRIRKENVDAGERAKQALAFERTDFDQVRSLMENSDRCQDIRNLAFLGIAYNTLLRIAVIARIRVKDISRTDGGRMLIHIGRTKTLVSTAGVEKALSLGVTKLVERWISVSGVADDPNNYLFCRVRKNGVAAPSATSQLSTRALEGIFEATHRLIYGAKDDSGQRYLAWSGHSARVGAARDMARAGVSIPEIMQAGGWTNVNIVMNYIRNLDSETGAMVRLLEDGD |  |  |  | 28 |  | 45 | 33 | 31 |  |  | 
3 | Cre recombinase monomer with E176I mutation (protein) MSNLLTVHQNLPALPVDATSDEVRKNLMDMFRDRQAFSEHTWKMLLSVCRSWAAWCKLNNRKWFPAEPEDVRDYLLYLQARGLAVKTIQQHLGQLNMLHRRSGLPRPSDSNAVSLVMRRIRKENVDAGERAKQALAFERTDFDQVRSLMENSDRCQDIRNLAFLGIAYNTLLRIAIIARIRVKDISRTDGGRMLIHIGRTKTLVSTAGVEKALSLGVTKLVERWISVSGVADDPNNYLFCRVRKNGVAAPSATSQLSTRALEGIFEATHRLIYGAKDDSGQRYLAWSGHSARVGAARDMARAGVSIPEIMQAGGWTNVNIVMNYIRNLDSETGAMVRLLEDGD |  | 36 |  | 40 |  |  |  |  | 67 | 50 | 43
